Measured values from patent US10206886B2, “Lipid nanoparticles for wound healing” (Praxis Biopharma Research Institute, priority 2013, dated 2019).

What was measured:
Balb/C 3T3 fibroblast = experiment: Proliferation assay with rhEGF-loaded nanoparticles (CCK-8); format: cell-based; conditions: 15 ng/ml rhEGF, after 48 hours and 72 hours, FIG. 1
Method: 24-well plate was used for the proliferation assay. 35000 Balb/C 3T3 fibroblast resuspended in 1 ml of completed culture medium (DMEM supplemented with 10% FCS) were seeded in each well. After 8 hours of incubation, the medium was replaced by 1 ml of 0.2% FCS supplemented DMEM and cells were incubated overnight. Then, medium was replaced by 1 ml of: (i) 0.2% FCS-supplemented DMEM, (ii) 15 ng/ml of free rhEGF in 0.2% FCS-supplemented DMEM, (iii) empty SLN in 0.2% FCS-supplemented DMEM, (iv) 15 ng/ml of rhEGF-loaded SLN (rhEGF-SLN) in 0.2% FCS-supplemented DMEM, (v) empty NLC in 0.2% FCS-supplemented DMEM and (vi) 15 ng/ml of rhEGF-loaded NLC (rhEGF-NLC) in 0.2% FCS-supplemented DMEM.
The cells were cultured under the same conditions for 24 hours, 48 hours and 72 hours. The experiments were performed in triplicate. After the different incubation intervals, 100 μl of CCK-8 (Sigma-Aldrich, Saint Louise, USA) was added to each well (Zhou, Y., Qian, M., Liang, Y., Liu, Y., Yang, X., Jiang, T., Wang, Y., 2011. Effects of Leukemia Inhibitory Factor on Proliferation and Odontoblastic Differentiation of Human Dental Pulp Cells. J. Endod. 37, 819-824). After 4 hours of incubation, absorbance was read at 450 nm and at 650 nm as the reference wavelength. The absorbance was directly proportional to the number of living cells in culture.

db/db mice [1] = experiment: In vivo wound healing, wound closure (wound area); conditions: 75 μg rhEGF intralesionally (free rhEGF twice a week; rhEGF-MS once)
db/db mice [2] = experiment: Histological estimation of wound healing: inflammation score (Cotran scale 0-4); format: in vivo; conditions: 75 μg rhEGF intralesionally (free rhEGF twice a week; rhEGF-MS once)
db/db mice [3] = experiment: Histological estimation of wound healing: re-epithelization score (Sinha criteria 0-4); format: in vivo; conditions: 75 μg rhEGF intralesionally (free rhEGF twice a week; rhEGF-MS once), scale 0-4
Large White pigs [4] = experiment: In vivo wound healing in pigs, serial analysis of healed wounds (closure above 95%); conditions: rhEGF-NLC 20 μg topically, free rhEGF 75 μg intralesionally, twice a week
Text: All the protocols and procedures used were previously approved by the Institutional Animal Care and Use Committee from the Jesús Usón Minimally Invasive Surgery Centre (JUMISC). Six female Large White pigs, with a mean weight of 26.82±2.90 kg at the beginning of the study, distributed in individual pens of 2.90 m×1.35 m were used. All the animals of the study were randomly distributed in acclimated rooms, where the following housing conditions were established: 12-hour light-dark cycle, temperature between 20 and 25° C., eight air changes per hour with HEPA-filtered ventilation and relative humidity between 50 and 70%. As pen environmental enrichment, hanging chains and chewing rubber toys were installed as chewable elements. After an acclimatization period, the animals were identified by ear tag codes to be included in the study. […]
Wound healing kinetic was determined by measuring the wound closure (percentage of initial wound area closed) on days 1, 15, 25, 36 and 43. The wound area was assessed, in a standardized manner, taken photographs perpendicularly to the wound surface, using the same illumination and placing a transparent plastic sterile ruler next to the wounds to introduce a metric reference in the pictures for further processing. The wound area was calculated using the image software ImageJ (see section 5.3). […]

[5] = rhEGF plasma concentration (systemic absorption), ELISA; format: in vivo, pigs; conditions: 30 minutes after first dose; free rhEGF 75 μg intralesionally
Method: (§1) Treatment administration began 24 hours after wound induction (day 1 of the study) to allow primary homeostasis, platelet adhesion and aggregation, and activation of the coagulation cascade. The animals were randomly divided into three groups (n=2): (i) empty NLC, (ii) 20 μg rhEGF-NLC and (iii) 75 μg free rhEGF. Nanoparticles previously resuspended in 150 μl of vehicle (0.5% carboxymethylcellulose in 0.9% saline) were topically administered twice a week by spreading them over the wound bed. Free rhEGF, resuspended in 1 ml of vehicle, was intralesionally administered twice a week.
In addition, plasma samples from the rhEGF-NLC and free rhEGF treated animals were collected to assess rhEGF systemic absorption. rhEGF detection was performed by ELISA (human EGF ELISA development kit, PeproTech). Samples were drawn when the plasma rhEGF levels were expected to be higher. Thus, samples from the animals treated with rhEGF-NLC were collected on day 1 of the experiment (prior to the treatment administration), 4 hours and 24 hours after administration. Plasma samples from the animals treated with free rhEGF were obtained just after administration and 30 minutes after the first dose. […]

Large White pigs [6] = experiment: Histological assessment in pigs: wound maturity and healing quality (Cotran criteria); format: in vivo; conditions: rhEGF-NLC 20 μg topically, free rhEGF 75 μg intralesionally
Method: as §1
Complete skin thickness biopsies from the centre of the unhealed wound to the healthy margin (2 mm) were collected using a sterile scalpel. Collected samples were immediately fixed in 4% formalin, embedded in paraffin and excised in 5-μm thick layers. Samples were stained with haematoxilyn-eosin (HE) for morphological observations. Biopsies were collected on day 15 for wounds 1, 2 and 3 and on days 25 and 43 for all of the wounds. On day 36, wound images were taken but no biopsies were collected not to delay wound healing.
Wound healing was determined in terms of the re-epithelization grade by measuring the newly formed epithelia, and wound maturity and healing quality according to the Cotran et al. (2000) criteria.

B1: free rhEGF: Non-encapsulated recombinant human epidermal growth factor; 75 μg of lyophilised rhEGF similar to commercialised Heberprot (protein, UniProt P01133 23-1207, looked up)
Pro-epidermal growth factor: PQHWSCPEGTLAGNGNSTCVGPAPFLIFSHGNSIFRIDTEGTNYEQLVVDAGVSVIMDFHYNEKRIYWVDLERQLLQRVFLNGSRQERVCNIEKNVSGMAINWINEEVIWSNQQEGIITVTDMKGNNSHILLSALKYPANVAVDPVERFIFWSSEVAGSLYRADLDGVGVKALLETSEKITAVSLDVLDKRLFWIQYNREGSNSLICSCDYDGGSVHISKHPTQHNLFAMSLFGDRIFYSTWKMKTIWIANKHTGKDMVRINLHSSFVPLGELKVVHPLAQPKAEDDTWEPEQKLCKLRKGNCSSTVCGQDLQSHLCMCAEGYALSRDRKYCEDVNECAFWNHGCTLGCKNTPGSYYCTCPVGFVLLPDGKRCHQLVSCPRNVSECSHDCVLTSEGPLCFCPEGSVLERDGKTCSGCSSPDNGGCSQLCVPLSPVSWECDCFPGYDLQLDEKSCAASGPQPFLLFANSQDIRHMHFDGTDYGTLLSQQMGMVYALDHDPVENKIYFAHTALKWIERANMDGSQRERLIEEGVDVPEGLAVDWIGRRFYWTDRGKSLIGRSDLNGKRSKIITKENISQPRGIAVHPMAKRLFWTDTGINPRIESSSLQGLGRLVIASSDLIWPSGITIDFLTDKLYWCDAKQSVIEMANLDGSKRRRLTQNDVGHPFAVAVFEDYVWFSDWAMPSVMRVNKRTGKDRVRLQGSMLKPSSLVVVHPLAKPGADPCLYQNGGCEHICKKRLGTAWCSCREGFMKASDGKTCLALDGHQLLAGGEVDLKNQVTPLDILSKTRVSEDNITESQHMLVAEIMVSDQDDCAPVGCSMYARCISEGEDATCQCLKGFAGDGKLCSDIDECEMGVPVCPPASSKCINTEGGYVCRCSEGYQGDGIHCLDIDECQLGEHSCGENASCTNTEGGYTCMCAGRLSEPGLICPDSTPPPHLREDDHHYSVRNSDSECPLSHDGYCLHDGVCMYIEALDKYACNCVVGYIGERCQYRDLKWWELRHAGHGQQQKVIVVAVCVVVLVMLLLLSLWGAHYYRTQKLLSKNPKNPYEESSRDVRSRRPADTEDGMSSCPQPWFVVIKEHQDLKNGGQPVAGEDGQAADGSMQPTSWRQEPQLCGMGTEQGCWIPVSSDKGSCPQVMERSFHMPSYGTQTLEGGVEKPHSLLSANPLWQQRALDPPHQMELTQ
modifications: Pro-epidermal growth factor
notes: Non-encapsulated recombinant human epidermal growth factor; 75 μg of lyophilised rhEGF similar to commercialised Heberprot
cell proliferation compared with control groups (Balb/C 3T3 fibroblast): greater cell proliferation
Wound healing 4th day (db/db mice [1]): 8.42 ± 3.96%
Wound healing 7th day (db/db mice [1]): 19.94 ± 5.21%
Wound healing 11th day (db/db mice [1]): 44.80 ± 2.64%
Wound healing 14th day (db/db mice [1]): 61.83 ± 2.99%
Inflammation score Day 16 (db/db mice [2]): 2.75 ± 0.95
Inflammation score Day 8 (db/db mice [2]; listed as Free rhEGF): 1.75 ± 0.71
Inflammation score Day 8 (db/db mice [2]; listed as rhEGF): 2.13±0.64
Re-epithelization score Day 8 (db/db mice [3]): 1.25±0.89
Re-epithelization score Day 16 (db/db mice [3]): 2.71 ± 0.49
Re-epithelization score Day 8 (db/db mice [3]; listed as Free rhEGF): 1.25 ± 0.89
percentage of healed wounds (Large White pigs [4]; day 25): 40%
wound closure state (Large White pigs [4]; day 36): completely closed
rhEGF plasma concentrations [5]: 0.20 ± 0.01 ng/mL
extension of inflammatory tissue (Grade 2) (Large White pigs [6]; day 15, FIG. 10A): mainly showed a diffuse acute inflammation
wound maturity and healing quality (healing grade) (Large White pigs [6]; day 25, FIG. 10B): still showed chronic inflammation
